Experimental data reported in patent publication US9523084B2, “Phosphodeoxyribosyl transferase mutant enzymes and uses thereof” (Centre National De La Recherche Scientifique, priority 2012, dated 2016).
Changes are numbered by the printed parent chain. Numbers in names are those of the source.

Assays:
Assay type in all cases: biochemical
[1] = target: T1, Lactobacillus leichmannii nucleoside deoxyribosyltransferase (NDT, SEQ ID NO:1) variant PDTT1, R13 G92 T93 S123 K157 (F13R/D92G/V93T/N123S/Y157K), SEQ ID NO:9 (Lactobacillus leichmannii, UniProt Q9R5V5, D92G/F13R/N123S/V93T/Y157K); test: Kinetic parameters of PDT variants with deoxycytidine 5'-mono, -di and -triphosphate as donors and adenine as acceptor; settings: adenine acceptor
T1 construct: homohexamer (108 kDa)
T1 sequence (Q9R5V5 1-157 F13R/D92G/V93T/N123S/Y157K): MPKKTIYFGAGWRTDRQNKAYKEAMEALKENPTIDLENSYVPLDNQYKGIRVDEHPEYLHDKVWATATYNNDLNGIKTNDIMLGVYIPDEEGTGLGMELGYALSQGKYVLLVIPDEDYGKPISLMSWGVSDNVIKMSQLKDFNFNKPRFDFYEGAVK
Protocol: (§1) The standard assay (“first protocol for enzyme assay”) for the different NDTs consisted of 5-15 μg of NDT in 50 mM MES buffer pH 6.0, dNxP (dNMP, or dNDP or dNTP) 3 mM and a base 1 mM in a total volume of 50 μL. Assays were incubated for 60 min at 37° C. The products of the reactions were analyzed each 7 min by Rapid resolution high performance liquid chromatography using a reverse-phase column (ZORBAX Eclipse XDB-C18 2.1*50 mm 1.8 μM) with a flow rate of 0.25 ml/min and a linear gradient of 1-12% CH3CN (2-25% CH3CN or 1-90% CH3CN) in 20 mM triethylammonium acetate, pH 7.5, buffer for 7 min. The low resolution mass spectra of the newly synthesized deoxyribonucleotides were obtained on an Agilent 1200 series LC/MS 6120 quadrupole system using an atmospheric electrospray ionization system.
(§2) This hypothesis was confirmed by monitoring the specific activity, in the presence of dCDP or dCTP as donor and adenine as acceptor (see table 2 above). The kinetic parameters were determined for the best variants with dCMP, dCDP and dCTP as substrates, at a concentration of A being fixed (see table 3 below).

[2] = target: T2, Lactobacillus leichmannii nucleoside deoxyribosyltransferase (NDT, SEQ ID NO:1) variant PDTT2, R13 Q91 G92 T93 S123 (F13R/E91Q/D92G/V93T/N123S), SEQ ID NO:10 (Lactobacillus leichmannii, UniProt Q9R5V5, D92G/E91Q/F13R/N123S/V93T); test: as above; settings: adenine acceptor
T2 construct: made in house; host or cells: E. coli BLi5 (pET24a NDT plasmid)
T2 sequence (Q9R5V5 2-157 F13R/E91Q/D92G/V93T/N123S): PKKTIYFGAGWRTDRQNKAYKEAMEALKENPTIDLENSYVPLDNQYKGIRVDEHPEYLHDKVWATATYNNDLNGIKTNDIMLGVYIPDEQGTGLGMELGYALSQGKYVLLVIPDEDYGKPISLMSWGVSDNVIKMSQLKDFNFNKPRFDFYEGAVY
Protocol: as §1, §2

[3] = substrate: Nc1ccn([C@H]2C[C@H](O)[C@@H](COP(=O)(O)OP(=O)(O)OP(=O)(O)O)O2)c(=O)n1; test: as above; settings: other: PDTT2; deoxyribose triphosphate transferase; 37.0 °C
Protocol: as §1, §2

[4] = substrate: Nc1ccn([C@H]2C[C@H](O)[C@@H](COP(=O)(O)O)O2)c(=O)n1; test: as above; settings: 37.0 °C; for Km: adenine as acceptor, fixed
Protocol: as §1, §2

[5] = substrate: Nc1ncnc2c1ncn2[C@H]1C[C@H](O)[C@@H](COP(=O)(O)OP(=O)(O)OP(=O)(O)O)O1; test: Spectrophotometric assay coupled to xanthine oxidase, dATP + C ⇄ dCTP + A; settings: other: PDTT2, 1 mM cytosine, 50 mM MES pH6.0, 37° C., pH 6.0
Protocol: Further, the cinetic parameters of these mutant enzymes were analysed, using a specific spectrophotometric assay. Briefly, the assay consists in measuring the formation of the final product (2,8 dihydroxyadenine) of the reaction:
Briefly, the assay was performed using the coupling of two enzymes: the variant (PDTT2, PDTT4, PDTT5, PDTT6, or PDTT7) to be tested and xanthine oxidase (obtained from Roche). The reaction mixture contained varying concentrations of dATP, 1 mM cytosine in a 50 mM MES buffer pH6.0 at 37° C. The reaction was initiated by adding 30 units of the purified variant to be tested and xanthine oxidase (Roche). The released adenine was then oxidized in 2,8-dihydroxyadenine which absorbs at 301 nm. The formation (i.e. concentration) of 2,8 dihydroxyadenine was measured by spectrophotometry.

Nc1ccn([C@H]2C[C@H](O)[C@@H](COP(=O)(O)O)O2)c(=O)n1 [dCMP]
kcat ([1]; PDTT1, second line of the table): 0.08 s⁻¹ | kcat ([1]; PDTT1, third line of the table): 0.5 s⁻¹ | kcat ([2]; PDTT2, second line of the table): 0.1 s⁻¹ | kcat ([2]; PDTT2, third line of the table): 1.3 s⁻¹

B1: Lactobacillus leichmannii nucleoside deoxyribosyltransferase (NDT, SEQ ID NO:1) variant PDTT2, R13 Q91 G92 T93 S123 (F13R/E91Q/D92G/V93T/N123S), SEQ ID NO:10 … (protein)
chain: T2 sequence (Q9R5V5 2-157 F13R/E91Q/D92G/V93T/N123S)
notes: made in house; host or cells: E. coli BLi5 (pET24a NDT plasmid)
Km [3]: 2 mM | kcat/Km [3]: 668 M⁻¹ s⁻¹ | kcat ([4]; other: PDTT2, first line, adenine acceptor, molecular mass of 108 kDa): 0.9 s⁻¹ | Km ([4]; other: PDTT2, first line): 6 mM | Km ([4]; other: PDTT2, second line of the table): 8.7 mM | Km ([4]; other: PDTT2, third line of the table): 2 mM

B2: Lactobacillus leichmannii nucleoside deoxyribosyltransferase (NDT, SEQ ID NO:1) variant PDTT2, R13 Q91 G92 T93 S123 (F13R/E91Q/D92G/V93T/N123S), SEQ ID NO:10 … (protein)
chain: T1 sequence (Q9R5V5 1-157 F13R/D92G/V93T/N123S/Y157K) with E91Q, K157Y
notes: as for B1
Km [5]: 6.1 mM | kcat [5]: 12.6 s⁻¹ | kcat/Km [5]: 2000 M⁻¹ s⁻¹
